Assay results reported in publication PMC12102759 (2025).

What was measured:
PRDM14 wild-type peptide = experiment: FP
NCOA2 wild-type peptide = experiment: FP

Row | Binder | Kd (PRDM14 wild-type peptide) | Kd (NCOA2 wild-type peptide)
1 | SARS‐CoV‐2 NSP3 SUD‐M domain (1356–1493), tag cleaved, for FP (domain or fragment) LPSIISNEKQEILGTVSWNLREMLAHAEETRKLMPVCVETKAIVSTIQRKYKGIKIQEGVVDYGARFYFYTSKTTVASLINTLNDLNETLVTMPLGYVTHGLNLEEAARYMRSLKVPATVSVSSPDAVTAYNGYLTSS | 74 µM | 
2 | SARS‐CoV‐2 NSP3 UBl1 domain (819–925), tag cleaved, for FP (domain or fragment) APTKVTFGDDTVIEVQGYKSVNITFELDERIDKVLNEKCSAYTVELGTEVNEFACVVADAVIKTLQPVSELLTPLGIDLDEWSMATYYLFDESGEFKLASHMYCSFY |  | 39 µM
